The text below walks through data of patent US20070243194A1.

The target of assay [1] is human IGF-1R on cells (human) (UniProt P08069). Nature of the assay: flow cytometry on MCF-7 cells, FITC anti-mouse IgG; x axis is log Ab conc. (nM). (Flow cytometry measures light scatter and fluorescence of single cells or particles in a stream.)
Assay [2] deals with human IGF-1R(1-902)-His10 (human) (UniProt P08069). The assay is described as follows: ELISA on plates coated with rh-IGF-1R, HRPO anti-mouse IgG Fc [a].
Sequence of human IGF-1R(1-902)-His10 (human) (P08069 other isoform, or with tags, fused parts or gaps): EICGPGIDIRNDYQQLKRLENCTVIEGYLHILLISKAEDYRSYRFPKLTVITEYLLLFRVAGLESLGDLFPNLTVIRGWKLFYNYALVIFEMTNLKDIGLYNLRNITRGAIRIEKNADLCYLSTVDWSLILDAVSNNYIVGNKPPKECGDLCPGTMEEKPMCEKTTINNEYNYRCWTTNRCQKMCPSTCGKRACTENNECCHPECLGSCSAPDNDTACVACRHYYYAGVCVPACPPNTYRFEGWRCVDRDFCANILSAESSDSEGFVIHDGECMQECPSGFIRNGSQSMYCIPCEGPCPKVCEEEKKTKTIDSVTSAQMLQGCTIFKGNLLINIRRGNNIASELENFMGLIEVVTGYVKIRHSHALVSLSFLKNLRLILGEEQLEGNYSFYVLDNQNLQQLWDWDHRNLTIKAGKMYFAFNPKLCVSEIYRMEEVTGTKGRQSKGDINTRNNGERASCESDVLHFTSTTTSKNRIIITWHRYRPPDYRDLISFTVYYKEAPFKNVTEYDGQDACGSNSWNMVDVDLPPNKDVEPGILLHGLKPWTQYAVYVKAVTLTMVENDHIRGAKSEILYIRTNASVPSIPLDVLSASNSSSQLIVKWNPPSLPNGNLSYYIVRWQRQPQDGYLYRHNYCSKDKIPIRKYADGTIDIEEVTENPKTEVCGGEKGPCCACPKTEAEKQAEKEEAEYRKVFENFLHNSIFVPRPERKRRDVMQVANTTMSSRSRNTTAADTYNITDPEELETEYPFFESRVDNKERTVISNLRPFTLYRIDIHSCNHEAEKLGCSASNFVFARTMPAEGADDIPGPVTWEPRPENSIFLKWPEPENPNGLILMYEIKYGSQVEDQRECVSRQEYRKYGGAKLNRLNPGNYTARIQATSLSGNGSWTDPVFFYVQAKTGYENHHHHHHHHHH

Sequence of human IGF-1R on cells (human) (P08069 31-740, chain 1 of 2): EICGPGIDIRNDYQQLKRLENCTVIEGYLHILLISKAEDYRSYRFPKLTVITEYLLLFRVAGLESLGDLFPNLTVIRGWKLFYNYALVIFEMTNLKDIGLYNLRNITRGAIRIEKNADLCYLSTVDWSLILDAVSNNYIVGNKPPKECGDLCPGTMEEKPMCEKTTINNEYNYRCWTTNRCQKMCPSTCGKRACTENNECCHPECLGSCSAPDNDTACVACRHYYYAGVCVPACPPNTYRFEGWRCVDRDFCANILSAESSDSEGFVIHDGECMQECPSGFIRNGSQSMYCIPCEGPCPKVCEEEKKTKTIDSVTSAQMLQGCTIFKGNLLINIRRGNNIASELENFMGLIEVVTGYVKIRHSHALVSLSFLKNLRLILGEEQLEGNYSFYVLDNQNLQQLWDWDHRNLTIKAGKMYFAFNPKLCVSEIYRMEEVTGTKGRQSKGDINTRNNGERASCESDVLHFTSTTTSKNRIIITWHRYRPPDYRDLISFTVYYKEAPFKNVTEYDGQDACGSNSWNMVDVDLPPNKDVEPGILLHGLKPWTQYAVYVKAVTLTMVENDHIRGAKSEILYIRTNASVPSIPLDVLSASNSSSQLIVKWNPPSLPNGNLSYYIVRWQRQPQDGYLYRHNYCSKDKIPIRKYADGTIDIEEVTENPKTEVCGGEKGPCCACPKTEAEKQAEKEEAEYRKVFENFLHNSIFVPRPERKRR
Sequence of human IGF-1R on cells (human) (P08069 741-1367, chain 2 of 2): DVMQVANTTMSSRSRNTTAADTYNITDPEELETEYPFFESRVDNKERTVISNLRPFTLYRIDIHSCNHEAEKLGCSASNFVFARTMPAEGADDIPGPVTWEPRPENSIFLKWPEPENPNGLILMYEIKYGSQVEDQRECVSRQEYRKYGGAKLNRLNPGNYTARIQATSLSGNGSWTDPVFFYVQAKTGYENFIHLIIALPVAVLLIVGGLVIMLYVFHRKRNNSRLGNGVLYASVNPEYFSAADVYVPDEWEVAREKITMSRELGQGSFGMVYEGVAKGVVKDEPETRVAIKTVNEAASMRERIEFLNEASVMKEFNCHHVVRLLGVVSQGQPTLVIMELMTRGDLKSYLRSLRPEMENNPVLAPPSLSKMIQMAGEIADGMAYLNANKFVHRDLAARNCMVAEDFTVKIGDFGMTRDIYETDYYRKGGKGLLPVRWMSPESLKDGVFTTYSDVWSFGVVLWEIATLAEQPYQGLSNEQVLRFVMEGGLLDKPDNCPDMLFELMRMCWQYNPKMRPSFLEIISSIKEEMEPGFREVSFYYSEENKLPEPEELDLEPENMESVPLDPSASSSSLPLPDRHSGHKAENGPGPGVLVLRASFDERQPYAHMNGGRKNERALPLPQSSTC

One may read the EC50 (read off the curve) as the concentration giving half of the maximal effect. For the substance IR3 (antibody), the results for the EC50 (read off the curve) in assay [1] and in assay [2] were 5 nM and 0.2 nM, respectively.
